This passage reports screen value and Kd results from publication PMC4497409.

In general, Kd refers to the free concentration of one partner at which half of the binding sites on the other are occupied at equilibrium, for simple one-to-one binding.

B1: Biotinylated human Norrin wild-type (pHL-Avitag3 construct) [modified: biotin on the C-terminal BirA recognition sequence (in vivo biotinylation); biotin on the C-terminal BirA recognition sequence (in vivo … (parent)
chain 1: KTDSSFIMDSDPRRCMRHHYVDSISHPLYKCSSKMVLLARCEGHCSQASRSEPLVSFSTVLKQPFRSSCHCCRPQTSKLKALRLRCSGGMRLTATYRYILSCHCEECNS
chain 2: ERRCDPIRISMCQNLGYNVTKMPNLVGHELQTDAELQLTTFTPLIQYGCSSQLQFFLCSVYVPMCTEKINIPIGPCGGMCLSVKRRCEPVLKEFGFAWPESLNCSKFPPQNDHNHMCMEGPGDEEVPLPHKTPIQPGE

In this assay the parent is B1. In words: SPR. As to conditions: with Frizzled4 cysteine-rich domain (Fz4CRD), Norrin mutant immobilized on CM5 chip, Fz4CRD as analyte, 1:1 Langmuir binding model.

In the case of chain 1 M90N L92S, the screen value (Surface: 435 RU (WT surface in panel A: 336 RU)) worked out at 78 RU. In addition, where the note is “Surface: 435 RU”, the Kd is 1060 nM.
For the variant chain 1 L28N K30S, under “Surface: 325 RU (WT surface in panel A: 336 RU)”, the screen value amounted to 122 RU. For the same variant, the dissociation constant Kd (Surface: 325 RU) was determined as 1250 nM.
